Measured values as given in the MegaScale stability set (Tsuboyama et al. 2023).

B1: EEHEE_rd4_0647 (parent)
chain: MQVTWGNVTVTFSNPEEAKKYAEKVARKLGGQVELHNGQFRIK

Variants of: B1
Assay: folding stability dG (cDNA display proteolysis); higher = more stable
Conditions: PBS, room temperature

| Variant | folding stability dG |
| --- | --- |
| MQVTWGNVTVTFSNPEEAKDYAEKVARKLGGQVELHNGQFRIK [K20D] | 2.54 kcal/mol |
| MQVTWGNVTVTFSNPEEAKRYAEKVARKLGGQVELHNGQFRIK [K20R] | 2.96 kcal/mol |
| MQVTWGNVTVTFSNPEEAKFYAEKVARKLGGQVELHNGQFRIK [K20F] | 2.41 kcal/mol |
| MQVTWGNVTVTFSNPEEAKTYAEKVARKLGGQVELHNGQFRIK [K20T] | 2.62 kcal/mol |
| MQVTWGNVTVTFSNPEEAKKYAEKVARKLGGQVELHNGSFRIK [Q39S] | 2.65 kcal/mol |
| MQVTWGNVTVTFSNPEEAKKYAEKVARKLGGQVELHNGNFRIK [Q39N] | 2.75 kcal/mol |
| MQVTWGNVTVTFSNPEEAKKYAEKVARKLGGQVELHNGCFRIK [Q39C] | 2.68 kcal/mol |
| MQVTWGNVTVTFSNPEEAKKYAFKVARKLGGQVELHNGQFRIK [E23F] | 2.98 kcal/mol |
| MQVTWGNVTVTFSNPEEAKKYAVKVARKLGGQVELHNGQFRIK [E23V] | 2.42 kcal/mol |
| MQVTWGNVTVTFSNPEEAKKYARKVARKLGGQVELHNGQFRIK [E23R] | 2.23 kcal/mol |
| MQVTWGWVTVTFSNPEEAKKYAEKVARKLGGQVELHNGQFRIK [N7W] | 2.43 kcal/mol |
| MQVTWGNVTVTWSNPEEAKKYAEKVARKLGGQVELHNGQFRIK [F12W] | 1.18 kcal/mol |
| MQVTWGNVTVTNSNPEEAKKYAEKVARKLGGQVELHNGQFRIK [F12N] | -0.258 kcal/mol |
| MQVTWGNVTVTGSNPEEAKKYAEKVARKLGGQVELHNGQFRIK [F12G] | -0.079 kcal/mol |
| MQVTWGNVTVTFSHPEEAKKYAEKVARKLGGQVELHNGQFRIK [N14H] | 2.38 kcal/mol |
| MQVTWGNVTVTFSTPEEAKKYAEKVARKLGGQVELHNGQFRIK [N14T] | 2.89 kcal/mol |
| MQVTWGNVTVTFSNPEEAKKYAEKVARKLGGQVELHTGQFRIK [N37T] | 1.36 kcal/mol |
| MQVTWGNVTVVFSNPEEAKKYAEKVARKLGGQVELHNGQFRIK [T11V] | 2.59 kcal/mol |
| MQVTWGNVTVDFSNPEEAKKYAEKVARKLGGQVELHNGQFRIK [T11D] | 1.99 kcal/mol |
| MQVTWGNVTVEFSNPEEAKKYAEKVARKLGGQVELHNGQFRIK [T11E] | 2.34 kcal/mol |

| Variant | folding stability dG |
| --- | --- |
| MQVTWGNVTVQFSNPEEAKKYAEKVARKLGGQVELHNGQFRIK [T11Q] | 2.53 kcal/mol |
| MQVTWGNVTVPFSNPEEAKKYAEKVARKLGGQVELHNGQFRIK [T11P] | 1.65 kcal/mol |
| MQVTWGNVTVTFSNPEEAKKYAEKVARKLGGQVELGNGQFRIK [H36G] | 1.8 kcal/mol |
| MQVTWGNVTVTFSNPEEAKKYAEKVARKLGGQVELSNGQFRIK [H36S] | 2.6 kcal/mol |
| MQVTWGNVTVTFSNPEEAKKYAEKVARKLGGQVELCNGQFRIK [H36C] | 3.37 kcal/mol |
| MQVTWGNVTVTFSNPEEAKKYAEKVARKLGGQVELPNGQFRIK [H36P] | 0.326 kcal/mol |
| MQVTWGNVTVTFSNPEEAKKYAEKVARKHGGQVELHNGQFRIK [L29H] | 2.06 kcal/mol |
| MQVTWGNVTVTFSNPEEAKKYAEKVARKPGGQVELHNGQFRIK [L29P] | 0.143 kcal/mol |
| MQVTWGNVTVTFSNPEEAKKYAEKVARKLGGQVELHNGQFVIK [R41V] | 3.5 kcal/mol |
| MQVTWGNVTVTFSNPEEAKKEAEKVARKLGGQVELHNGQFRIK [Y21E] | 0.876 kcal/mol |
| MQVTWGNVTVTFSNPEEAKKQAEKVARKLGGQVELHNGQFRIK [Y21Q] | 0.996 kcal/mol |
| MQVTWGNVTVTFSNPEEAKKRAEKVARKLGGQVELHNGQFRIK [Y21R] | 0.486 kcal/mol |
| MQVTWGNVTVTFSNPEEAKKYAEKVARKLGGQRELHNGQFRIK [V33R] | 0.477 kcal/mol |
| MQVTWGNVTVTFSNPEEAKKYAEKVARKLGGQLELHNGQFRIK [V33L] | 2.16 kcal/mol |
| MQVTWGNVTVTFSNPEEAKKYAEKVARKLGGQDELHNGQFRIK [V33D] | 0.259 kcal/mol |
| MQVTWGNVTVTFSNPEEAKKYAEKVARKLGGQMELHNGQFRIK [V33M] | 1.86 kcal/mol |
| MQVTLGNVTVTFSNPEEAKKYAEKVARKLGGQVELHNGQFRIK [W5L] | 2.12 kcal/mol |
| MQVTSGNVTVTFSNPEEAKKYAEKVARKLGGQVELHNGQFRIK [W5S] | 0.968 kcal/mol |
| MQVTWGNVTVTFSNPEAAKKYAEKVARKLGGQVELHNGQFRIK [E17A] | 2.93 kcal/mol |
| MQVTWGNVTVTFSNPEYAKKYAEKVARKLGGQVELHNGQFRIK [E17Y] | 2.58 kcal/mol |

| Variant | folding stability dG |
| --- | --- |
| MQVTWGNVTVTFSNPEFAKKYAEKVARKLGGQVELHNGQFRIK [E17F] | 2.47 kcal/mol |
| MQVTWGNVTVTFSNPEEAKKYAEKVRRKLGGQVELHNGQFRIK [A26R] | 1.38 kcal/mol |
| MQVTWGNVTVTFSNPEEAKKYAEKVPRKLGGQVELHNGQFRIK [A26P] | -0.236 kcal/mol |
| MQVTWGNVTITFSNPEEAKKYAEKVARKLGGQVELHNGQFRIK [V10I] | 2.94 kcal/mol |
| MQVTWGNVTKTFSNPEEAKKYAEKVARKLGGQVELHNGQFRIK [V10K] | 2.66 kcal/mol |
| MQVTWGNVTETFSNPEEAKKYAEKVARKLGGQVELHNGQFRIK [V10E] | 1.5 kcal/mol |
| MQVTWGNVTDTFSNPEEAKKYAEKVARKLGGQVELHNGQFRIK [V10D] | 0.472 kcal/mol |
| MQVTWGNVTVTFSNPEEAKKYEEKVARKLGGQVELHNGQFRIK [A22E] | -0.084 kcal/mol |
| MQVTWGNVTVTFSNPEEAKKYTEKVARKLGGQVELHNGQFRIK [A22T] | 0.682 kcal/mol |
| MQVTWGNVTVTFSNPEEAKKYMEKVARKLGGQVELHNGQFRIK [A22M] | 1.48 kcal/mol |
| MQVTWGNVTVTFSNPDEAKKYAEKVARKLGGQVELHNGQFRIK [E16D] | 2.79 kcal/mol |
| MQVTWGNVTVTFSNPNEAKKYAEKVARKLGGQVELHNGQFRIK [E16N] | 2.56 kcal/mol |
| MQVTWGNVTVTFSNPEEAKKYAEKVARTLGGQVELHNGQFRIK [K28T] | 2.54 kcal/mol |
| MQVTWGNVTVTFSNPEEAKKYAEKVARDLGGQVELHNGQFRIK [K28D] | 2.47 kcal/mol |
| MQVTWGNVTVTFSNPEEAKKYAEKVARALGGQVELHNGQFRIK [K28A] | 3.04 kcal/mol |
| MQVTWGNVTVTFSNPEEAKKYAEKVARQLGGQVELHNGQFRIK [K28Q] | 2.79 kcal/mol |
| MQVTWGNVTVTFSNPEEAKKYAEKWARKLGGQVELHNGQFRIK [V25W] | 2.69 kcal/mol |
| MQVTWGNVTVTFSNPEEAKKYAEKKARKLGGQVELHNGQFRIK [V25K] | 1.68 kcal/mol |
| MCVTWGNVTVTFSNPEEAKKYAEKVARKLGGQVELHNGQFRIK [Q2C] | 3.07 kcal/mol |
